pKd: −log10 of the molar value.
Target: NLGN-1ΔAB-Fc (neuroligin-1 lacking splice inserts A and B, residues Q46-S693, with a C-terminal Fc domain) (UniProt Q62765)
Assay: SPR

pKd: 7.52
Substance: β-NRXN-1 (ΔSS#4), soluble recombinant (domain or fragment)

Reference: publication PMC3279696
